From patent US20090053196A1 (LUDWIG MAXIMILLIANS UNIVERSITAT MUNCHEN, published 2009)

Experiments:
[1] = biological target: T1, myc-tagged HSP-1 (^mycHSP-1) (Caenorhabditis elegans, UniProt P09446 1-640); assay: summary sentence of Example 5 on the earlier binding assays
T1 construct: Bacterially expressed from pET-^mycHSP-1; also called C. elegans Hsp70 homolog; Hsp70 ortholog HSP-1; not shown: N-terminal myc tag introduced 5' of the cDNA by PCR (pET21a)
Protocol: (§1) Binding of UNC-45^FLAG, ^mycCHN-1, ^mycCHN-1^ΔU-box, ^mycCHN-1^ΔTPR, ^mycCHN-1^Δ, ^mycUFD-2, ^mycUFD-2^{ΔU-box,} ^mycHSP-1 to GST-UFD-2 or GST-CHN-1 was done in buffer A [10 mM Tris pH 8, 10 mM DTT, Complete protease inhibitors (Boehringer)]+150 mM NaCl at 4° C. for 60 min. Glutathione-Sepharose beads were washed at least five times in buffer A with 0.1% Triton X-100 and 150 mM NaCl and bound proteins were eluted with SDS-PAGE sample buffer. Sonicated lysates from wild-type worms expressing the transgene P_unc-54::unc-45^FLAG were incubated with anti-FLAG M2-agarose beads (Sigma) in 50 mM Tris/HCl (pH 8.0), 100 mM NaCl, 10% glycerol, 1% Triton X-100 and 5 mM PMSF at 4° C. for 3 hours. Samples were precipitated with protein G-agarose beads (Amersham Pharmacia). Immunoprecipitates were washed at least five times in the same lysis buffer, were eluted with SDS-PAGE sample buffer and were separated by SDS gel electrophoresis followed by Western blotting using anti-FLAG M2 monoclonal antibodies (Sigma) or anti-Ubiquitin monoclonal antibodies (Chemicon).

[2] = biological target: T2, GST (UniProt P08515 1-218 = GST); assay: GST pull-down with glutathione-Sepharose beads
T2 construct: Negative control of the pull-down experiments; also called GST alone; immobilized GST
Protocol: (C) Complex of CHN-1, UFD-2 and UNC-45. GST-UFD-2 was incubated with purified FLAG-tagged UNC-45 (UNC-45^FLAG) and myc-tagged CHN-1 (^mycCHN-1) together, ^mycCHN-1 or UNC-45^FLAG alone and pulled down with glutathione-Sepharose beads. GST alone with UNC-45^FLAG and ^mycCHN-1 served as the negative control.
as §1

[3] = biological target: T3, FLAG-tagged UNC-45 (UNC-45^FLAG) (Caenorhabditis elegans); assay: GST pull-down, equimolar GST-UFD-2 or GST-CHN-1 with identical amounts of purified UNC-45
T3 construct: Purified as described in Barral 2002; also called ^FLAGUNC-45; purified UNC-45
Protocol: (B) In vitro binding of UNC-45 by UFD-2 or CHN-1. Equimolar amounts of GST-UFD-2 and GST-CHN-1 were incubated with the same amount of purified FLAG-tagged UNC-45 (UNC-45^FLAG) and pulled down with glutathione-Sepharose beads. GST alone with UNC-45^FLAG served as the negative control.
Binding of UNC-45^FLAG, ^mycCHN-1, ^mycCHN-1^ΔU-box, ^mycCHN-1^ΔTPR, ^mycCHN-1^Δ, ^mycUFD-2, ^mycUFD-2^{ΔU-box,} ^mycHSP-1 to GST-UFD-2 or GST-CHN-1 was done in buffer A [10 mM Tris pH 8, 10 mM DTT, Complete protease inhibitors (Boehringer)]+150 mM NaCl at 4° C. for 60 min. Glutathione-Sepharose beads were washed at least five times in buffer A with 0.1% Triton X-100 and 150 mM NaCl and bound proteins were eluted with SDS-PAGE sample buffer. […]
To compare their binding efficiencies, pull-down experiments were performed using equimolar amounts of GST-UFD-2 or GST-CHN-1 with identical amounts of purified UNC-45. […] Binary mixtures containing immobilized UFD-2 and either UNC-45 or CHN-1, and a ternary mixture containing all three proteins were set up and the resulting complexes analyzed by SDS-polyacrylamide gel electrophoresis. Approximately equimolar complexes were detected between UFD-2 and both CHN-1 and UNC-45 in the binary mixtures and among the three proteins in the ternary mixture. […]

T1 sequence (P09446 whole entry): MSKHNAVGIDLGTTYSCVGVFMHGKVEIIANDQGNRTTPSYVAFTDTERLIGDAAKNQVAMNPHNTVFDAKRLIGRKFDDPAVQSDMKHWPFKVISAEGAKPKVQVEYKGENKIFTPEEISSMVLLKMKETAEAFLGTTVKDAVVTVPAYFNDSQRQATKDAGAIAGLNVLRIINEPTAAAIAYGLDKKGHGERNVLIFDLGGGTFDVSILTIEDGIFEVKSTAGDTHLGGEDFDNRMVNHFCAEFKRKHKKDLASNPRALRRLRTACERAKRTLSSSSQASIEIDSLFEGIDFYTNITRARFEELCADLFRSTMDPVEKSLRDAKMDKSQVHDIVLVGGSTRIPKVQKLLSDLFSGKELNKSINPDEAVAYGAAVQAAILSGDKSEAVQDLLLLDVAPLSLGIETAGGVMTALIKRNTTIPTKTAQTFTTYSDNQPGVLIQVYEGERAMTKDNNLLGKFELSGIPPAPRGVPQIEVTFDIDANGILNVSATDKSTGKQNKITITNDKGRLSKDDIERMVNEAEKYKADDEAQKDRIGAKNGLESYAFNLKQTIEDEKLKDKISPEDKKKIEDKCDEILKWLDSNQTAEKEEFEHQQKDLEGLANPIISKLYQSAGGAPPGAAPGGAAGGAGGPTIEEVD
T2 sequence (P08515 whole entry): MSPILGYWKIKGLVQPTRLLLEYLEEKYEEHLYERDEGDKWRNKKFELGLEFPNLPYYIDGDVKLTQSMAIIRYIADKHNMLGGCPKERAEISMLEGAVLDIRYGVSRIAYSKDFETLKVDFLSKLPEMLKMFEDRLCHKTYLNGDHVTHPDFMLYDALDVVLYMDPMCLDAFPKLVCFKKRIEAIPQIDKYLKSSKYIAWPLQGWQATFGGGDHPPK

B1: GST-CHN-1 (enzyme)
chain: MSSGAEQHNTNGKKCYMNKRYDDAVDHYSKAIKVNPLPKYYQNRAMCYFQLNNLKMTEEDCKRALELSPNEVKPLYFLGNVFLQSKKYSEAISCLSKALYHNAVITNAPDIENALKRARHQKYEEEESKRIVQDVEFHTYLESLIEKDRQENSENPEELQRADMAKKRLTELTLATQEKRQNREVPEMLCGKITLELMKEPVIVPSGITYDREEIVQHLRRIGHFDPVTRKPLTENEIIPNYALKEVIEKFLDDNPWAKYEPGGMV
notes: GST fusion from pGEX-CHN-1, purified from E. coli; also called GST-tagged version of CHN-1; not shown: glutathione S-transferase (GST) encoded by vector pGEX4T1
- binding result [1]: binds

B2: myc-tagged CHN-1 (^mycCHN-1) (enzyme)
chain: MSSGAEQHNTNGKKCYMNKRYDDAVDHYSKAIKVNPLPKYYQNRAMCYFQLNNLKMTEEDCKRALELSPNEVKPLYFLGNVFLQSKKYSEAISCLSKALYHNAVITNAPDIENALKRARHQKYEEEESKRIVQDVEFHTYLESLIEKDRQENSENPEELQRADMAKKRLTELTLATQEKRQNREVPEMLCGKITLELMKEPVIVPSGITYDREEIVQHLRRIGHFDPVTRKPLTENEIIPNYALKEVIEKFLDDNPWAKYEPGGMV
notes: Full-length CHN-1, bacterially expressed from pET-^mycCHN-1; also called C. elegans CHIP ortholog; not shown: N-terminal myc tag introduced 5' of the cDNA by PCR (pET21a)
- binding result [2]: no binding

B3: GST-UFD-2 (enzyme, Caenorhabditis elegans, UniProt Q09349 1-984, looked up)
chain: MIEDEKAGLQPMDISDASVFFFQADVESKDFLTSLFDCEGKSDDRMLRYADAIIDVQNLNFDVSPQCLQSNIAEIITKFVLLSQDGSRRGLSRSFNFIDPDIIAGCREEDAIEFLLINFVRCHHELGKSGTSNCYKKTLESTRKAVFSVFVMIQRGYLESQLRSQHASLVFTKRLLEDTVSNVFLRTLVEYLASTDECDEDAITETFNPIFGILRSGIICQRFEDNKDEIVRQILRVMNLLLSIRLPSNGPRPLSNLLVNREDFLPTPSEKIQGREFGLMSFLGPFFSYGLESSARRPNHRVFVDCEEDARKYDGSVNTEQKLYFQRMDPIRTMLHQLMLPLASDQGSRNKTLRWIATIISTNDIRTRSHYDPSDVLCDHYMTNFLSVMYMFSEKIDLSKIIVDYPFLPSSLINISKETRLKMDESGAVAFASQFADRPDEYHFSTVCFFLTIAAQRLVIPPLMNQISEYSRHLKELKHKINALKEKLNTVSGFERAEVEKKLNYETEHWKLMSRHLLCVKTQAQDPALMASSMDFVDKQMKFILNLLCDNLDLLGDDSQLPTEVSQMFCALPEYFLEDALDFYIFAISNGMKLLMERNADWISRLTVLFTQYHYIKSPFLVSKLVRVLSSIQPPLWFNVVRLRMAQENLLMCMIKFYSDFEDNGDFYEKFNVRGNIQYMLEKMEEDMFYKGKFMDMARECGAEFIRFVNMVINDATWCIDESLSGLKSIHDVEKKMANKVEWDNTDQEIRNQDLGVYEEAKRKVKGWLGTAKSNLKLLLSITVNSPEPFRTPVLGERLAAMLNHNLSQLIGSKASELKVKDPRSYGWEPREFVSLLISIYLKLNMPAFVKYIAYDERTYSPEFFHNAIECMRKNSIVGFSQLESFEHLAEDVKKEYEAKAELEEEYDDVPEEFKDPIMDAIMVDPVKLPSGHVMDRAVIERHLLSTPNNPFNRAPLSHNELSPDSELKAKIQEWICQKRNSKK
notes: GST fusion from pGEX-UFD-2, purified from E. coli; also called immobilized GST-UFD-2; not shown: glutathione S-transferase (GST) encoded by vector pGEX4T1
- fold more UNC-45 bound than by GST-CHN-1 [3]: ~20 fold
